This passage reports protein stability index results from the supplement of paper PMC10567573.

± gives the standard deviation.

The data set in a line: protein stability index of a GFP-peptide fusion (GPS, HEK-293T) (PSI 1-6); higher = more stable.
Where [1] appears, read: treatment: DMSO, c terminus: a fixed tail appended.
Where [2] appears, read: treatment: MLN4924 1 uM, 8 h, c terminus: a fixed tail appended.
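Further: 24-mer peptide tiles fused after GFP, lentivirally expressed, FACS-sorted into six equal bins by GFP/DsRed ratio, decoded by Illumina sequencing, PSI is the read-weighted mean bin number.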

Take QIEKKEKKLHKIQNKAQRQKDLIM [TAF7L]: the protein stability index by setting is: under setting [1], 3.64 ± 0.32; under setting [2], 3.85 ± 0.28.

With QKALYRRLATVHMSRMINKYKRRR [CLPTM1], the protein stability index amounted to 3.7 ± 0.22 under setting [1] and 3.53 ± 0.16 under setting [2].

For QKFRNQFLSFSMYQSFVQFLQYYY [TMEM120A], the protein stability index by setting is: under setting [1], 2.42 ± 0.21; under setting [2], 2.41 ± 0.17.

Take QLDALPFFVITMIKIVLINSFGAI [SLC29A1]: the protein stability index is, setting by setting: under setting [1], 2.96 ± 0.54; under setting [2], 3.31 ± 0.17.

As to QLPFCGPNVIDNFLCDLYPLLKLA [OR4A15], the protein stability index was found to be 2.64 ± 0.66 under setting [1] and 2.47 ± 0.25 under setting [2].

With QLQLKIIEIEDEAEKWQKEKDRIK [TRIM29], the protein stability index is, setting by setting: under setting [1], 3.35 ± 0.24; under setting [2], 3.6 ± 0.36.

Take QLRKQKKKTGKSSTTALGDKQRKA [ELOA2]: the protein stability index reads like this: under setting [1], 4.73 ± 0.51; under setting [2], 4.82 ± 0.39.

On to QQVPMPPGQEAQRVVCGIDSSMIL [NEK8], for which the protein stability index came out at 3.39 ± 0.29 under setting [1] and 3.5 ± 0.33 under setting [2].

In turn, QRAQAEVLQSVRELSRSRKLYGQR [FCHSD1] yielded a protein stability index under setting [1] of 3.76 ± 0.2 and a protein stability index under setting [2] of 3.85 ± 0.36.

QRDGSKSEDELDQASTPTDVRDID [CCND2]: the protein stability index is, setting by setting: under setting [1], 5.62 ± 0.16; under setting [2], 5.62 ± 0.14.

Take QRDLSPTAEDAELSDFEECEETGE [FCHSD1]: the protein stability index by setting is: under setting [1], 5.55 ± 0.21; under setting [2], 5.54 ± 0.21.

As to QRFHEICSNLVKTRRRAVGWWKRL [ARL6IP1], the protein stability index amounted to 2.22 ± 0.41 under setting [1] and 2.55 ± 0.62 under setting [2].

With QSCWAFLPDLCLCRVFWWLGDRDR [FBXO39], the protein stability index by setting is: under setting [1], 2.2 ± 0.35; under setting [2], 2.27 ± 0.36.

Consider QSGRHLQTHSNTIVVSLQSKLASM [STX5], for which the protein stability index under setting [1] stood at 2.79 ± 0.36 and the protein stability index under setting [2] is 2.97 ± 0.28.

For QSMSQTRELLLDGGYLQRTTYDRR [RSPH3], the protein stability index stood at 3.85 ± 0.13 under setting [1] and 3.77 ± 0.052 under setting [2].

For QTTTAYKKTHETLSHAGQKATAAF [TPD52L1], the protein stability index by setting is: under setting [1], 4.08 ± 0.34; under setting [2], 3.98 ± 0.27.

Sequence QVGTLLFRSRSRLTHLSLSRRASE [CDC25B] displayed a protein stability index under setting [1] of 2.93 ± 0.39 and a protein stability index under setting [2] of 3 ± 0.13.

Turning to QVIHPQEFRRWRDTGVAFELRDSS [DNAAF3], the protein stability index worked out at 3.29 ± 0.36 under setting [1] and 3.31 ± 0.32 under setting [2].

Consider QVLNETRSQYEALVETNRREVEQW [KRT34], for which the protein stability index by setting is: under setting [1], 4.3 ± 0.22; under setting [2], 4.6 ± 0.1.

Take QVNRRSAKGNTALHDCAESGSLEI [FEM1A]: the protein stability index under setting [1] worked out at 4.56 ± 0.049 and the protein stability index under setting [2] is 4.26 ± 0.21.

In the case of QWLQSTSGSQRHMVGQKDSVILSV [TLE6], the protein stability index is, setting by setting: under setting [1], 2.12 ± 0.093; under setting [2], 2.29 ± 0.27.

In the case of QWRIRNLPYPKDVYSVSVDQKERC [DPCD], the protein stability index is, setting by setting: under setting [1], 3.32 ± 0.42; under setting [2], 3.17 ± 0.21.

As to RAAAAAAVAAATAAVEGSGGSGGG [KCNA4], the protein stability index under setting [1] came out at 4.88 ± 0.26 and the protein stability index under setting [2] is 4.9 ± 0.28.

As for RADQLCQQELRELRRELELLGRER [PRPH], the protein stability index under setting [1] was found to be 3.45 ± 0.17 and the protein stability index under setting [2] turned out to be 3.37 ± 0.56.

As to RAILKPRKVCVGGKRRKDEISVDS [PPP2R2B], the protein stability index worked out at 3.85 ± 0.19 under setting [1] and 4.1 ± 0.12 under setting [2].

As for RAKVQPQARKKEMEMRQLQRGPA [CPN1], the protein stability index runs as follows: (treatment: DMSO, c terminus: native) 3.26 ± 0.43; (treatment: MLN4924 1 uM, 8 h, c terminus: native) 3.11 ± 0.18.

Regarding RAVRQSVTSFPDADAFHHQVHDDD [EMD], the protein stability index is 5.2 ± 0.17 under setting [1] and 5.314 ± 0.044 under setting [2].

Turning to RAWSQCGGGGLRAWSQRSAAGRVC [CPOX], the protein stability index under setting [1] is 2.71 ± 0.077 and the protein stability index under setting [2] was found to be 2.88 ± 0.37.

Regarding RCPVTVCGDVHGQFHDLMELFRIG [PPP2CA], the protein stability index by setting is: under setting [1], 2.2 ± 0.35; under setting [2], 2.24 ± 0.14.

On to RDIRCSEDEKLCDPNTRPVGEKNC [ADAMTSL2], for which the protein stability index is, setting by setting: under setting [1], 5.18 ± 0.28; under setting [2], 5.35 ± 0.22.

As for RDLPDTPRRFTFYPCVLATEGFTS [TRIM39], the protein stability index was determined as 2.56 ± 0.21 under setting [1] and 2.5 ± 0.2 under setting [2].

Take RDMNGKSLDGKAIKVEQATKPSFE [RBMX]: the protein stability index was 5.08 ± 0.24 under setting [1] and 5.24 ± 0.27 under setting [2].

As to RDRLLNRYRQAGSSGPGNSQNSFL [RPAIN], the protein stability index is 3.36 ± 0.32 under setting [1] and 3.56 ± 0.38 under setting [2].

The sequence RDSESTRHDSETEDMLWDDLLHGP [PHTF1] gave a protein stability index under setting [1] of 5.49 ± 0.31 and a protein stability index under setting [2] of 5.4 ± 0.2.

In the case of REHKETCEMDWSDKMEAYNIDETC [TEKT4], the protein stability index is 5.26 ± 0.19 under setting [1] and 5.14 ± 0.077 under setting [2].

RERREEDRAPAEQVPRSPVIKISY [PWWP2B]: the protein stability index turned out to be 4.34 ± 0.34 under setting [1] and 4.08 ± 0.18 under setting [2].

As for RESPSFKLEPMETERSPGPRLQEL [ZNF263], the protein stability index is, setting by setting: under setting [1], 4.42 ± 0.14; under setting [2], 4.51 ± 0.2.

For RFNQAILVSRHDPASRRRVVEEVR [LPCAT4], the protein stability index by setting is: under setting [1], 3.62 ± 0.25; under setting [2], 3.59 ± 0.29.

On to RFRDFVDALEDSLEEVAVQQTGDD [PBXIP1], for which the protein stability index runs as follows: under setting [1], 4.87 ± 0.44; under setting [2], 4.9 ± 0.27.

In the case of RGDSGRLGLGTRESHSCPQQVPMP [NEK8], the protein stability index by setting is: under setting [1], 4.07 ± 0.18; under setting [2], 4.19 ± 0.28.

In the case of RGGMLSASAETLPAGFRVSTLGTL [PPFIA4], the protein stability index under setting [1] came out at 3.26 ± 0.14 and the protein stability index under setting [2] worked out at 3.57 ± 0.49.

RGGSDPETTGIQIWSEVFTVEKPG [ATL3] came in with a protein stability index under setting [1] of 4 ± 0.59 and a protein stability index under setting [2] of 4.09 ± 0.28.

Consider RGGSLLAGGGGFGGGSLSGGGGSR [KRT15], for which the protein stability index came to 3.32 ± 1.1 under setting [1] and 3.95 ± 0.34 under setting [2].

For the sequence RGIHNIQKRYHCKECGKVFSQSAG [ZSCAN9], the protein stability index amounted to 2.58 ± 0.27 under setting [1] and 2.78 ± 0.24 under setting [2].

Turning to RGLSQNLFSNSDHQRDGTLGALHT [SASS6], the protein stability index is, setting by setting: under setting [1], 3.87 ± 0.26; under setting [2], 3.81 ± 0.17.

RHCPYLDTINRSVLDFDFEKLCSI [USP39] came in with a protein stability index under setting [1] of 2.61 ± 0.23 and a protein stability index under setting [2] of 2.56 ± 0.3.

Regarding RIHVLPSLNPDGYEKAYEGGSELG [CPXM2], the protein stability index was found to be 3.93 ± 0.11 under setting [1] and 4.36 ± 0.36 under setting [2].

As to RIVHLQETCDLGKIKPEARRYLEK [NLN], the protein stability index by setting is: under setting [1], 3.25 ± 0.51; under setting [2], 3.66 ± 0.67.

RKGLQHGFFDFETFDVDEYEHYER [CDC14A]: the protein stability index by setting is: under setting [1], 3.93 ± 0.31; under setting [2], 3.94 ± 0.41.

For RKQKQELCEKFDYLYGILEERKNE [TRIM55], the protein stability index runs as follows: under setting [1], 3.72 ± 0.36; under setting [2], 3.67 ± 0.54.

For RKSLFDDKAVEIEELTYIIKQDIN [STX5], the protein stability index is, setting by setting: under setting [1], 2.9 ± 0.18; under setting [2], 2.76 ± 0.31.

Take RKTQKKVPDVKEMEKSSFTEYIES [TAF7L]: the protein stability index under setting [1] amounted to 4.43 ± 0.13 and the protein stability index under setting [2] was found to be 4.47 ± 0.27.

In the case of RLDKHLYVIGGRNETGYLSSVECY [KLHL14], the protein stability index is, setting by setting: under setting [1], 2.28 ± 0.17; under setting [2], 2.14 ± 0.2.

Regarding RLLLDSGAQVNMPADSFESPLTLA [ANKRD17], the protein stability index under setting [1] came out at 3.44 ± 0.23 and the protein stability index under setting [2] came out at 3.46 ± 0.41.

In the case of RLQCPFEQELLRRQQRLNQLEKPP [FAM107A], the protein stability index by setting is: under setting [1], 3.93 ± 0.33; under setting [2], 4.14 ± 0.18.

For the sequence RNGHAKVVRLLLEHYRVQTQQTGT [FEM1B], the protein stability index under setting [1] was found to be 2.32 ± 0.21 and the protein stability index under setting [2] came out at 2.3 ± 0.28.

With RNLDASPTYKGLLMSLQNQLKESK [CEP70], the protein stability index runs as follows: under setting [1], 3.19 ± 0.083; under setting [2], 3.36 ± 0.25.

Turning to RNQTQVLRQQQDEAYLASLRADQE [FAF2], the protein stability index under setting [1] stood at 5.18 ± 0.32 and the protein stability index under setting [2] is 5.17 ± 0.16.

As to RPAFVRVRRGHSHLAPSEAKAADS, the protein stability index is 4.35 ± 0.1 under setting [1] and 4.45 ± 0.16 under setting [2].

Regarding RPASSGGAHTLVNHGYAEPAAGRE [KCNA3], the protein stability index stood at 4.7 ± 0.44 under setting [1] and 4.86 ± 0.23 under setting [2].

Take RPNSRHTPSFSGDSSSSCSDHCIT [VDR]: the protein stability index is, setting by setting: under setting [1], 4.52 ± 0.086; under setting [2], 4.45 ± 0.25.

RQSVENDIHGLRKVIDDTNITRLQ [KRT18]: the protein stability index is, setting by setting: under setting [1], 4.17 ± 0.22; under setting [2], 4.13 ± 0.25.

With RRFNFFVLENNLEAVARHMLIFSL [DNAAF3], the protein stability index amounted to 2.77 ± 0.49 under setting [1] and 2.6 ± 0.47 under setting [2].

Take RRGSTPLHMAVERRVRGVVELLLA [RIPK4]: the protein stability index is, setting by setting: under setting [1], 2.9 ± 0.085; under setting [2], 2.67 ± 0.045.

As for RRGWRPSSREDSLEAGLPLQVRGY [CHGA], the protein stability index reads like this: under setting [1], 3.42 ± 0.47; under setting [2], 3.8 ± 0.27.

As to RRHRLGGVGAVPGPGTPTGPSLPS [ZBTB22], the protein stability index reads like this: under setting [1], 4.25 ± 0.22; under setting [2], 4.47 ± 0.16.

In the case of RRLYEKKIFEYETQRRRLSPPSSS [EMD], the protein stability index runs as follows: under setting [1], 3.25 ± 0.26; under setting [2], 3.35 ± 0.48.

Take RRVGGSRILLRMTLGREVMSPLQA [NLN]: the protein stability index is 2.15 ± 0.32 under setting [1] and 2.34 ± 0.35 under setting [2].

Turning to RSDADLVVFLSPLTTFQDQLNRRG [OAS1], the protein stability index reads like this: under setting [1], 2.27 ± 0.22; under setting [2], 2.33 ± 0.31.

For the sequence RSELVEGCGWRCPEHGDRVAELFC [TRIM14], the protein stability index is, setting by setting: under setting [1], 2.86 ± 0.12; under setting [2], 3.04 ± 0.36.

In turn, RSERKKWIHCFEGVTAIIFCVALS [GNAI1] displayed a protein stability index under setting [1] of 3.21 ± 0.4 and a protein stability index under setting [2] of 2.89 ± 0.8.

On to RSPRAGAGALLRLPSERLDFSMAE [PRPH], for which the protein stability index is, setting by setting: under setting [1], 4.17 ± 0.17; under setting [2], 4.21 ± 0.29.
